Measured values reported in IntAct's records for PubMed 31404830.

B1: PRL-1 phosphatase (Drosophila melanogaster (Fruit fly)), O61722 (parent)
chain: MSITMRQKDLRPAPALIEYKGMKFLITDRPSDITINHYIMELKKNNVNTVVRVCEPSYNTDELETQGITVKDLAFEDGTFPPQQVVDEWFEVLKDKYQQNPEACVAVHCVAGLGRAPVLVALALIELGLKYEAAVEMIRDKRRGAINAKQLSFLEKYKPKARLKHKNGHKNSCSVQ

Variants of: B1
Details: with uex_drome uex

Row | effect of a mutation on the interaction | Variant
1 | decreasing interaction strength | MSITMRQKDLRPAPALIEYKGMKFLITDRPSDITINHYIMELKKNNVNTVVRVCEPSYNTDELETQGITVKDLAFEAGTFPPQQVVDEWFEVLKDKYQQNPEACVAVHSVAGLGRAPVLVALALIELGLKYEAAVEMIRDKRRGAINAKQLSFLEKYKPKARLKHKNGHKNSCSVQ
